From patent publication US20240092924A1 (RIKEN, published 2024)
Where “and” joins values, the source holds several entries; their conditions need not be identical. Identical values can stand only once.

Legend:
[1] = molecular target: T1, epitope region-containing peptide fragment (AFPPEVIGPLFFFPLLYMIFQLGEG-biotin) (C-terminal biotin); assay: SPR (BIAcore 2000, 25 C); antibody captured via anti-mouse IgG on CM5, peptide as analyte; 1:1 Langmuir fit
T1 peptide: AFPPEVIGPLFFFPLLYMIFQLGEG
Experimental: (§1) In short, a carboxymethylated dextran biosensor chip (CM5, BIAcore Inc.) was activated by N-ethyl-N′-(3-dimethylaminopropyl)-carbodiimide hydrochloride (EDC) and N-hydroxysuccinimide (NHS) in accordance with the provider's instruction. An anti-mouse IgG antibody was diluted with 10 mM sodium acetate (pH5.2) up to 30 μg/ml. The dilution was injected at a flow rate of 5 to 10 μl/minute such that the reaction unit (RU) of the protein bound became 9,000 to 14,000 RU. […] The diluted antibody was injected at a flow rate of 5 to 10 μl/minute such that the reaction unit (RU) of the protein bound became 9,000 to 14,000 RU. After injection of each of the anti IgG antibodies, 1 M ethanolamine was injected in order to block unreactive groups. […] To the chip, a solution of an epitope region-containing peptide fragment diluted with the running buffers at different concentrations was added at 25° C. at a flow rate of 10 μl/minute for 2 minutes.
(§2) Using simple one-to-one Langmuir binding model (BIAcore Evaluation software version 3.1) by fitting sensor grams of antigen-antibody association and dissociation at the same time, association rate (Ka) and dissociation rate (Kd) were calculated. A Kd/Ka ratio was calculated to obtain an equilibrium dissociation constant (KD).

[2] = molecular target: T2, wild-type human sodium taurocholate cotransporting polypeptide (human NTCP) (human, UniProt Q14973 1-349); assay: cell-based or functional assay
T2 sequence: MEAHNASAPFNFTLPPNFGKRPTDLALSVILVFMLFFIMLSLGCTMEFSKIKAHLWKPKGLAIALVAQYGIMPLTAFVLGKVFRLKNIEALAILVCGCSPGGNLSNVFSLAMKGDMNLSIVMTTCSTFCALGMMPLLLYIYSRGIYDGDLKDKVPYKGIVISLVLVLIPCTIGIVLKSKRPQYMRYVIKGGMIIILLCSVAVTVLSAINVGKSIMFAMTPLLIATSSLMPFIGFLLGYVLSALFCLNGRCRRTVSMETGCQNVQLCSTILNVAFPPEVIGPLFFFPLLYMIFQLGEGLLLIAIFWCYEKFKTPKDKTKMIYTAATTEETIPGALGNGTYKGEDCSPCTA

[3] = molecular target: T1, epitope region-containing peptide …; assay: SPR (BIAcore 2000, 25 C); antibody captured via anti-human IgG on CM5, peptide as analyte; 1:1 Langmuir fit
Experimental: as §1, §2

B1: Recombinant N6HB426 mouse IgG2a antibody (antibody)
heavy: QVQLQQSGAELVKPGASVKLSCKASDFTFTEYTIHWIKQMSGQGLEWIGWFYPGSGDIKYSEKFKDKATLTADKSSSTVYMELNRLTSEDSAVYFCARHMRDFRGFYYGRFYFDYWGQGTTLTVSSAKTTAPSVYPLAPVCGGTTGSSVTLGCLVKGYFPEPVTLTWNSGSLSSGVHTFPALLQSGLYTLSSSVTVTSNTWPSQTITCNVAHPASSTKVDKKIEPRGPTIKPCPPCKCPAPNLLGGPSVFIFPPKIKDVLMISLSPIVTCVVVDVSEDDPDVQISWFVNNVEVHTAQTQTHREDYNSTLRVVSALPIQHQDWMSGKEFKCKVNNKDLPAPIERTISKPKGSVRAPQVYVLPPPEEEMTKKQVTLTCMVTDFMPEDIYVEWTNNGKTELNYKNTEPVLDSDGSYFMYSKLRVEKKNWVERNSYSCSVVHEGLHNHHTTKSFSRTPGK
light: EIVLTQSPAIMSASPGEKVTITCRASSSVSSSYLHWYQQKSGVSPKLWIYSTSNLASGVPARFSGSGSGTSYSLTINSVEAEDAATYYCQQYSGYRWTFGGGTTLEIKRADAAPTVSIFPPSSEQLTSGGASVVCFLNNFYPKDINVKWKIDGSERQNGVLNSWTDQDSKDSTYSMSSTLTLTKDEYERHNSYTCEATHKTSTSPIVKSFNRNEC
notes: this is left out as a signal peptide; also called Recombinant mouse IgG2a antibody; N6HB426-20-IgG2a antibody
- Kd [1]: 313 pM
- koff [1]: 2.39e-07 s⁻¹
- kon [1]: 762 M⁻¹ s⁻¹

B2: Recombinant N6HB426 human chimeric IgG4 antibody (antibody)
heavy: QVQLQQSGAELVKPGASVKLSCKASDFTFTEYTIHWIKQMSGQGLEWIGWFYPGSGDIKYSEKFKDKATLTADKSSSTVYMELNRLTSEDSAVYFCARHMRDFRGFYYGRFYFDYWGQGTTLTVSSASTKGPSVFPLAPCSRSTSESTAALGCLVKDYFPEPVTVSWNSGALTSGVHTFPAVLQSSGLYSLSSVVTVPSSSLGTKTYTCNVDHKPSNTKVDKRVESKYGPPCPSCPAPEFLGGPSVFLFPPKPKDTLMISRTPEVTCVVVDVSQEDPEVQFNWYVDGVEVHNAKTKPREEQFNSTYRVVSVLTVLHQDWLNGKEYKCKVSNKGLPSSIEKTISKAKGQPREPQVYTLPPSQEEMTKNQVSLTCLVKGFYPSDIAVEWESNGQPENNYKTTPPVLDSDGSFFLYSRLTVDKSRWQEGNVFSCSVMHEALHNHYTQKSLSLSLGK
light: EIVLTQSPAIMSASPGEKVTITCRASSSVSSSYLHWYQQKSGVSPKLWIYSTSNLASGVPARFSGSGSGTSYSLTINSVEAEDAATYYCQQYSGYRWTFGGGTTLEIKRTVAAPSVFIFPPSDEQLKSGTASVVCLLNNFYPREAKVQWKVDNALQSGNSQESVTEQDSKDSTYSLSSTLTLSKADYEKHKVYACEVTHQGLSSPVTKSFNRGEC
notes: also called Recombinant N6HB426 human chimera IgG4 antibody; human chimeric antibody
- IC50, inhibition of HBV/NL pseudo-virus infection of HepG2-human NTCP cells [2]: 1.7 µg/mL
- Kd [3]: 129 pM
- koff [3]: 1.73e-07 s⁻¹
- kon [3]: 1340 M⁻¹ s⁻¹

B3: N6HB426-20 antibody (antibody produced by hybridoma) (antibody, V domains shown)
VH: QVQLQQSGAELVKPGASVKLSCKASDFTFTEYTIHWIKQMSGQGLEWIGWFYPGSGDIKYSEKFKDKATLTADKSSSTVYMELNRLTSEDSAVYFCARHMRDFRGFYYGRFYFDYWGQGTTLTVSS
VL: EIVLTQSPAIMSASPGEKVTITCRASSSVSSSYLHWYQQKSGVSPKLWIYSTSNLASGVPARFSGSGSGTSYSLTINSVEAEDAATYYCQQYSGYRWTFGGGTTLEIKRA
notes: Mouse IgG purified from the hybridoma supernatant on Protein G; also called N6HB426-20 monoclonal antibody; N6HB426 antibody
- IC50, inhibition of HBV/NL pseudo-virus infection of HepG2-human NTCP cells [2]: 1.7 µg/mL
- IC50, inhibition of infection with pseudo-HBV (NanoLuc) [2]: 0.27 µg/mL and 1.8 nM
- IC50, inhibition of live HBV infection of HepG2/NTCP-myc (HBs antigen level) [2]: 20000 to 30000 pM
- Kd [1]: 38.8 pM
- koff [1]: 3.19e-08 s⁻¹
- kon [1]: 821 M⁻¹ s⁻¹
